The target of this test is MtrAB complex (Shewanella oneidensis MR-1). Put plainly: AUC; sedimentation equilibrium (SE-AUC), 20°C, 8,000, 10,000 and 12,000 rpm, absorbance at 410 nm; 50 mM sodium phosphate, 50 mM NaCl, 0.1% (v/v) Triton X-100, pH 7.5; 0.4 uM single proteins, 0.25 uM + 0.25 uM mixture; fits to a single non-interacting species.

As for “Ru-MtrC (soluble Y657C MtrC labelled at Cys657 with a Ru(II)-bipyridine dye) (from UniProt Q8EG34 26-671) (natural protein)”, the stoichiometry N (Ru-MtrC per MtrAB) stood at 1.

The values are drawn from paper PMC8415449.
